Measurements as given in the supplement of paper PMC7877785.
± gives the uncertainty stated by the source.

Assay: self-splicing fitness, log relative to wild type (ln ratio); higher = more splicing; Tetrahymena group I intron in knt gene, E. coli kanamycin selection, DiMSum; sequences stand for … in CUCUCU…GGAGGGAAAAGUUAUCAGGCAUGCACCUGGUAGCUAGUCUUUAAACCAAUAGAUUGCAUCGGUUUAAAAGGCAAGACCGUCAAAUUGCGGGAAAGGGGUCAACAGCCGUUCAGUACCAAGUCUCAGGGGAAACUUUGAGAUGGCCUUGCAAAGGGUAUGGUAAUAAGCUGACGGACAUGGUCCUAACCACGCAGCCAAGUCCUAAGUCAACAGAUCUUCUGUUGAUAUGGAUGCAGUUCACAGACUAAAUGUCGGUCGGGGAAGAUGUAUUCUUCUCAUAAGAUAUAGUCGGACCUCUCCUUAAUGGGAGCUAGCGGAUGAAGUGAUGCAACACUGGAGCCGCUGGGAACUAAUUUGUAUGCGAAAGUAUAUUGAUUAGUUUUGGAGUACUCGUGGUCG
Summary of the method: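 Pooled colonies went to amplicon sequencing on an Illumina HiSeq 2500 after six replicate transformations. The plates were LB agar with 100 μg/mL carbenicillin, 50 μM IPTG and 0.2% rhamnose, with or without 25 μg/mL kanamycin, incubated overnight at 37°C or 30°C. The E. coli BL21(DE3) library had all eight P1ex-region intron nucleotides randomised, the intron placed in the knt kanamycin-resistance gene on pET-22b(+). DiMSum fitness is the error-weighted combination of replicate fold changes, kanamycin against none, normalised to wild type.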

AUGUAGCAAUAUUACGUCGU
self-splicing fitness (ln) (30 °C): -3.28 ± 0.24 | self-splicing fitness (ln) (37 °C): -0.241 ± 0.12

AUGUAGCAAUAUUACGUGGU
self-splicing fitness (ln) (37 °C): -1.53 ± 0.17

AUGUAGCAAUAUUACGUGUG
self-splicing fitness (ln) (30 °C): -3.33 ± 0.23 | self-splicing fitness (ln) (37 °C): -2.53 ± 0.15

AUUAAGCAAUAUUACGAACA
self-splicing fitness (ln) (30 °C): -1.43 ± 0.14 | self-splicing fitness (ln) (37 °C): -0.718 ± 0.17

AUUAAGCAAUAUUACGACCU
self-splicing fitness (ln) (30 °C): -0.144 ± 0.17 | self-splicing fitness (ln) (37 °C): 0.145 ± 0.18

AUUAAGCAAUAUUACGACUA
self-splicing fitness (ln) (30 °C): -1.05 ± 0.12 | self-splicing fitness (ln) (37 °C): -0.207 ± 0.15

AUUAAGCAAUAUUACGAUAC
self-splicing fitness (ln) (30 °C): -1.93 ± 0.11 | self-splicing fitness (ln) (37 °C): -0.885 ± 0.15

AUUAAGCAAUAUUACGAUUC
self-splicing fitness (ln) (30 °C): -1.89 ± 0.1 | self-splicing fitness (ln) (37 °C): -0.797 ± 0.12

AUUAAGCAAUAUUACGAUUU
self-splicing fitness (ln) (30 °C): -0.227 ± 0.091 | self-splicing fitness (ln) (37 °C): 1.04 ± 0.12

AUUAAGCAAUAUUACGCACC
self-splicing fitness (ln) (30 °C): -1.52 ± 0.19 | self-splicing fitness (ln) (37 °C): 0.0961 ± 0.28

AUUAAGCAAUAUUACGCAGU
self-splicing fitness (ln) (30 °C): -3.15 ± 0.21 | self-splicing fitness (ln) (37 °C): -2.48 ± 0.21

AUUAAGCAAUAUUACGCCCC
self-splicing fitness (ln) (30 °C): -1.21 ± 0.31 | self-splicing fitness (ln) (37 °C): 0.0189 ± 0.48

AUUAAGCAAUAUUACGCUAU
self-splicing fitness (ln) (30 °C): -3.62 ± 0.26 | self-splicing fitness (ln) (37 °C): -1.73 ± 0.26

AUUAAGCAAUAUUACGGAAA
self-splicing fitness (ln) (30 °C): -2.98 ± 0.29 | self-splicing fitness (ln) (37 °C): -1.77 ± 0.26

AUUAAGCAAUAUUACGGACU
self-splicing fitness (ln) (30 °C): 0.271 ± 0.11 | self-splicing fitness (ln) (37 °C): 0.324 ± 0.15

AUUAAGCAAUAUUACGGGGC
self-splicing fitness (ln) (30 °C): -3 ± 0.21 | self-splicing fitness (ln) (37 °C): -1.98 ± 0.26

AUUAAGCAAUAUUACGGGGG
self-splicing fitness (ln) (30 °C): -2.97 ± 0.27 | self-splicing fitness (ln) (37 °C): -2.33 ± 0.33

AUUAAGCAAUAUUACGGUAC
self-splicing fitness (ln) (30 °C): -3.84 ± 0.47 | self-splicing fitness (ln) (37 °C): -1.6 ± 0.2

AUUAAGCAAUAUUACGUAUC
self-splicing fitness (ln) (30 °C): -3.93 ± 0.25 | self-splicing fitness (ln) (37 °C): -2.31 ± 0.24

AUUAAGCAAUAUUACGUCCA
self-splicing fitness (ln) (30 °C): -0.883 ± 0.098 | self-splicing fitness (ln) (37 °C): -0.386 ± 0.12

AUUAAGCAAUAUUACGUGAC
self-splicing fitness (ln) (30 °C): -3.17 ± 0.17 | self-splicing fitness (ln) (37 °C): -1.75 ± 0.18

AUUAAGCAAUAUUACGUGGU
self-splicing fitness (ln) (30 °C): -2.42 ± 0.16 | self-splicing fitness (ln) (37 °C): -2.29 ± 0.19

AUUAAGCAAUAUUACGUUUG
self-splicing fitness (ln) (30 °C): -3.11 ± 0.15 | self-splicing fitness (ln) (37 °C): -1.56 ± 0.16

AUUCAGCAAUAUUACGAAGG
self-splicing fitness (ln) (30 °C): -1.02 ± 0.087 | self-splicing fitness (ln) (37 °C): -0.355 ± 0.12

AUUCAGCAAUAUUACGACAU
self-splicing fitness (ln) (30 °C): 0.206 ± 0.012 | self-splicing fitness (ln) (37 °C): 0.365 ± 0.032

AUUCAGCAAUAUUACGAGCU
self-splicing fitness (ln) (30 °C): -1.21 ± 0.14 | self-splicing fitness (ln) (37 °C): -0.997 ± 0.17

AUUCAGCAAUAUUACGAGUC
self-splicing fitness (ln) (30 °C): -3.54 ± 0.26 | self-splicing fitness (ln) (37 °C): -2.13 ± 0.43

AUUCAGCAAUAUUACGCGGC
self-splicing fitness (ln) (30 °C): -3.26 ± 0.22 | self-splicing fitness (ln) (37 °C): -2.43 ± 0.22

AUUCAGCAAUAUUACGGAAC
self-splicing fitness (ln) (30 °C): -2.54 ± 0.15 | self-splicing fitness (ln) (37 °C): -1.01 ± 0.17

AUUCAGCAAUAUUACGGAAU
self-splicing fitness (ln) (30 °C): -2.86 ± 0.14 | self-splicing fitness (ln) (37 °C): -2.61 ± 0.23

AUUCAGCAAUAUUACGGCUG
self-splicing fitness (ln) (30 °C): -1.86 ± 0.2 | self-splicing fitness (ln) (37 °C): -2.59 ± 0.31

AUUCAGCAAUAUUACGGGAC
self-splicing fitness (ln) (30 °C): -3.2 ± 0.16 | self-splicing fitness (ln) (37 °C): -1.2 ± 0.12

AUUCAGCAAUAUUACGGGCA
self-splicing fitness (ln) (30 °C): -1.47 ± 0.14 | self-splicing fitness (ln) (37 °C): -0.16 ± 0.14

AUUCAGCAAUAUUACGGUAC
self-splicing fitness (ln) (30 °C): -2.27 ± 0.11 | self-splicing fitness (ln) (37 °C): -0.675 ± 0.094

AUUCAGCAAUAUUACGGUCA
self-splicing fitness (ln) (30 °C): -0.711 ± 0.12 | self-splicing fitness (ln) (37 °C): -0.789 ± 0.11

AUUCAGCAAUAUUACGGUGC
self-splicing fitness (ln) (30 °C): -2.13 ± 0.16 | self-splicing fitness (ln) (37 °C): -0.156 ± 0.14

AUUCAGCAAUAUUACGUAGA
self-splicing fitness (ln) (30 °C): -1.35 ± 0.066 | self-splicing fitness (ln) (37 °C): -0.424 ± 0.094

AUUCAGCAAUAUUACGUAUA
self-splicing fitness (ln) (30 °C): -1.66 ± 0.16 | self-splicing fitness (ln) (37 °C): -0.805 ± 0.17

AUUCAGCAAUAUUACGUAUG
self-splicing fitness (ln) (30 °C): -2.34 ± 0.13 | self-splicing fitness (ln) (37 °C): -0.383 ± 0.12

AUUCAGCAAUAUUACGUCAC
self-splicing fitness (ln) (30 °C): -3.45 ± 0.2 | self-splicing fitness (ln) (37 °C): -2.19 ± 0.25

AUUCAGCAAUAUUACGUGUA
self-splicing fitness (ln) (30 °C): -1.7 ± 0.11 | self-splicing fitness (ln) (37 °C): -1.02 ± 0.092

AUUGAGCAAUAUUACGAACA
self-splicing fitness (ln) (30 °C): -3.6 ± 0.32 | self-splicing fitness (ln) (37 °C): -2.75 ± 0.25

AUUGAGCAAUAUUACGAAGA
self-splicing fitness (ln) (30 °C): -2.47 ± 0.25 | self-splicing fitness (ln) (37 °C): -2.23 ± 0.35

AUUGAGCAAUAUUACGACAG
self-splicing fitness (ln) (30 °C): -3.48 ± 0.26 | self-splicing fitness (ln) (37 °C): -2.18 ± 0.21

AUUGAGCAAUAUUACGACCU
self-splicing fitness (ln) (30 °C): -3.17 ± 0.27 | self-splicing fitness (ln) (37 °C): -0.0611 ± 0.17

AUUGAGCAAUAUUACGACUA
self-splicing fitness (ln) (30 °C): -1.2 ± 0.42 | self-splicing fitness (ln) (37 °C): -1.89 ± 0.41

AUUGAGCAAUAUUACGACUU
self-splicing fitness (ln) (30 °C): -1.5 ± 0.12 | self-splicing fitness (ln) (37 °C): -0.31 ± 0.13
